Here are results for one substance from paper PMC7378068.

For this assay, the target named is T1, IL-1R1 (mouse IL-1R complex on HEK-Blue-IL1R cells) (mouse) (UniProt P13504).
T1 sequence: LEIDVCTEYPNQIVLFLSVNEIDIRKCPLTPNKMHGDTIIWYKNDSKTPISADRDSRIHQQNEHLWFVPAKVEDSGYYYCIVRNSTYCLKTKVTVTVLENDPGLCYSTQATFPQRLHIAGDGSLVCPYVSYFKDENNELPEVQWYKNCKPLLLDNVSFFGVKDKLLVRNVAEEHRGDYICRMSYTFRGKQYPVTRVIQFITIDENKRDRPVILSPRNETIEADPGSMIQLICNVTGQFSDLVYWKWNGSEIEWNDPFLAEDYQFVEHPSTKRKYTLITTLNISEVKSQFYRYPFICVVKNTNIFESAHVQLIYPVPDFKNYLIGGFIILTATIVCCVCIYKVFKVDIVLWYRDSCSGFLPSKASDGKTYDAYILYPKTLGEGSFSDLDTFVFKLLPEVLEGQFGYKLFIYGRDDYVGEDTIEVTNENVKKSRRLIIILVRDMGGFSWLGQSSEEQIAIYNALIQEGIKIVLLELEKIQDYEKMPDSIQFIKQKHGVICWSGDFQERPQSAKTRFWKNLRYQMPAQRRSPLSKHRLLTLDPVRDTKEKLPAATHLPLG

Consider “human IL-1β mutant Q148G (from UniProt P01584 117-269) (ligand)”, for which the NF-κB-driven expression of a luciferase reporter in HEK-Blue-IL1R cells; fold reduction in activity compared with WT IL-1β was found to be 168 fold.
